Measurements: publication PMC2696559

Biological target: histone H2b (human, UniProt Q16778 1-126)
Assay: EMSA

Does GGAGGAGGAGGAGGAG (ssDNA) [16-mer oligonucleotide] bind?
Result: binds
